± gives the uncertainty stated by the source.
Assay: protein stability index of a GFP-peptide fusion (yeast GPS) (PSI 1-4); higher = more stable; sorted into four equal gates, so the index is relative within each strain
Summary of the method: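 Each library plasmid carries Cherry plus GFP with a tiled 17-residue yeast protein peptide fused downstream, and the pooled library was carried in yeast. Mid-log cultures in leucine-free medium were sorted into four equal gates by GFP/Cherry ratio. Reads from Illumina sequencing of PCR-amplified plasmids from each gate were assigned to strains by barcodes. Per peptide, the protein stability index was computed as the summed products of gate read frequency and gate number.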

Sequence	protein stability index (doa10∆)	protein stability index (pdr5∆)	protein stability index (san1∆)	protein stability index (ubr1∆)
VEEDHTLGNALRYVIMK [RPC19]	3.08 ± 0.11	2.75 ± 0.071	2.54 ± 0.085	2.73 ± 0.063
VEETEVPTVPPSQSEEQ [MED4]	2.73 ± 0.079	2.69 ± 0.1	2.43 ± 0.13	2.74 ± 0.055
VEGISEVQARKSKSVSF [RPT5]	3.41 ± 0.068	3.49 ± 0.11	3.41 ± 0.068	3.3 ± 0.069
VENELLQVDVDIAGQRD [RRP42]	1.36 ± 0.25	2.12 ± 0.28		1.14 ± 0.19
VEYLTRYVAGVQQRYTQ [PRE6]	1.47 ± 0.065	1.89 ± 0.086	1.65 ± 0.09	1.66 ± 0.1
VEYNLFTNRSTMMANFE [BRN1]	2.11 ± 0.18	2.4 ± 0.18	2.37 ± 0.095	2.65 ± 0.053
VFDKDGNYIKTENATEN [LIN1]				3.72 ± 0.28
VFGASDKQAEGTPLFTF [YOR098C/NUP1]	2.83 ± 0.074	2.86 ± 0.087	3 ± 0.097	3.21 ± 0.081
VFGTIIPKISDYIEFNI [YJL039C/NUP192]	2.05 ± 0.17	1.68 ± 0.22		1.61 ± 0.26
VFKTHSYRGVDLEKLLE [RPS15]	3.2 ± 0.083	3.18 ± 0.062	3.14 ± 0.045	2.29 ± 0.04
VFPSSILDITDEELVSH [RPP0]	2.89 ± 0.067	2.94 ± 0.1	3.26 ± 0.068	2.99 ± 0.065
VFSESCSNESFASIPVS [SNU114]	2.98 ± 0.061	3.29 ± 0.068	2.88 ± 0.062	3.12 ± 0.044
VFTMKELAQYMKTNVHT [RGR1]	2.66 ± 0.1	2.84 ± 0.13	2.6 ± 0.082	2.69 ± 0.057
VFVGSGKGTGKTAMAEL [BRR2]	3.29 ± 0.12	3.54 ± 0.15	3.44 ± 0.071	3.41 ± 0.098
VFYRMQQLRRALPDVVV [RPO31]	1.83 ± 0.038	1.93 ± 0.035	1.82 ± 0.074	1.99 ± 0.047
VGDVVGGALDNPFEDDM [BRN1]		3.37 ± 0.15	3.58 ± 0.21	3.16 ± 0.11
VGKQIVNIPSFMVRLDS [RPS9A]	2.59 ± 0.099	2.69 ± 0.12	2.42 ± 0.18	2.62 ± 0.096
VGLRSNTHAVLVALKRN [PRE5]	1.2 ± 0.037	1.45 ± 0.039	1.15 ± 0.093	1.21 ± 0.033
VGLSQPDAKIQVRRDIP [YMR129W/POM152]	2.98 ± 0.082	2.76 ± 0.14	2.51 ± 0.059	2.97 ± 0.066
VGPHFKQANNFLWPFKL [RPL7A]	2.71 ± 0.069	3.05 ± 0.098	2.97 ± 0.065	2.93 ± 0.064
VGSPLTVSILQESSSLR [POP8]	3.21 ± 0.078	3.01 ± 0.057	3.01 ± 0.063	3.1 ± 0.042
VHKLRHYLVNLTSPAFG [GRR1]	1.24 ± 0.04	1.38 ± 0.035	1.34 ± 0.077	1.21 ± 0.031
VHPFHVLRINKMLSCAG [RPL10]	1.11 ± 0.086	1.21 ± 0.075	1.21 ± 0.092	1.05 ± 0.06
VHRDDPALVGKLRGDLR [SNF6]	3.36 ± 0.083	3.2 ± 0.088	2.7 ± 0.092	2.88 ± 0.071
VIDIGASGCNVTPIIDG [ARP7]	2.67 ± 0.088	3.03 ± 0.084	2.93 ± 0.071	3.02 ± 0.05
VIIRRLKTRDWIVVLPW [POP1]	1.9 ± 0.072	1.46 ± 0.13	1.98 ± 0.15	1.82 ± 0.057
VIRIPMQENDKINQERL [CSI1]	2.42 ± 0.083	2.83 ± 0.085	2.37 ± 0.11	2.82 ± 0.072

Sequence	protein stability index (doa10∆)	protein stability index (pdr5∆)	protein stability index (san1∆)	protein stability index (ubr1∆)
VIVTDPRLDAQAIKEAS [RPS0B]	3.03 ± 0.096	3.1 ± 0.083	2.88 ± 0.072	2.9 ± 0.075
VIYRNSLYKVSFLEKPK [YMR129W/POM152]	2.49 ± 0.065	2.61 ± 0.081	2.42 ± 0.073	2.43 ± 0.12
VKALRNVPGVETANVAS [RPL4A]	2.76 ± 0.069	3.15 ± 0.062	2.98 ± 0.051	3.01 ± 0.048
VKCEELSNTLACYRTIM [RRP40]	2.24 ± 0.069	2.49 ± 0.093	2.01 ± 0.087	2.57 ± 0.075
VKDEAFDDLLKPVYKGK [RET1]	3.35 ± 0.16	3.32 ± 0.15	3.3 ± 0.11	3.12 ± 0.17
VKDLGQGLKLAKKHKLN [SMC3]	3.12 ± 0.11	2.92 ± 0.13	2.83 ± 0.097	2.81 ± 0.068
VKEESQPDENTKEMDEV [SWI3]	3.3 ± 0.19	2.81 ± 0.24	3.07 ± 0.17	3.03 ± 0.11
VKGDLLQEAIDFAQKEI [PRE10]	2.9 ± 0.076	2.84 ± 0.066	3.2 ± 0.054	2.9 ± 0.048
VKGKNCVVLGCERRSTL [PRE6]			2.84 ± 0.23	
VKIGKFIPHGLKRRQVI [SRB8]	2.48 ± 0.1	2.23 ± 0.075	3.11 ± 0.06	1.95 ± 0.078
VKIRATGGTRTKTPGPG [RPS14A]	3.21 ± 0.25	3.08 ± 0.16	2.72 ± 0.14	3.33 ± 0.21
VKKILPLYARYINVNPQ [ECM29]	2.43 ± 0.056	2.15 ± 0.051	3.06 ± 0.051	2.72 ± 0.04
VKKPQKSKTSTGKERSK [SNM1]	3.15 ± 0.07	3.39 ± 0.085	3.549 ± 0.035	3.35 ± 0.062
VKKTGENEISSLLAMHK [CDC53]	2.75 ± 0.3	2.54 ± 0.12	2.05 ± 0.3	2.87 ± 0.25
VKKVQLGKKGVPYVVTH [RPS4A]	1.77 ± 0.098	2.07 ± 0.13	3.06 ± 0.064	2.04 ± 0.071
VKKVVKEQTEAAKKSEK [RPL34A]	3.37 ± 0.14	3.4 ± 0.1	3.19 ± 0.038	3.31 ± 0.076
VKLIVMLCTLTGYQNND [YJL039C/NUP192]	1.89 ± 0.12	1.25 ± 0.078	1.29 ± 0.17	1.25 ± 0.098
VKVARLAGKYIPNLTAK [FAS1]	3.34 ± 0.25	2.58 ± 0.22		3.03 ± 0.14
VKWYHFDHNDKKLSINS [PRE7]	2.51 ± 0.086	2.38 ± 0.063	2.15 ± 0.082	2.48 ± 0.1
VKYASPNLNMKYRKRQL [FAS2]	3.6 ± 0.14	3.19 ± 0.09	3.02 ± 0.093	2.88 ± 0.068
VKYMPEQKITEIEDGQD [RPO21]	3.19 ± 0.12	3.12 ± 0.099	2.98 ± 0.098	3.19 ± 0.069
VLCTRLRLSNFFTIDHF [SIR2]	2.19 ± 0.064	1.5 ± 0.057	1.5 ± 0.097	1.28 ± 0.033
VLDSMTKEELESDGRMF [SRP54]	3.02 ± 0.088	3.2 ± 0.089	3.37 ± 0.051	2.27 ± 0.059
VLIDLLNWFRTTNMNVN [RGR1]	2.9 ± 0.11	1.66 ± 0.068	3.19 ± 0.096	1.92 ± 0.093
VLILLHAERDLALAETL [SRP68]	2.3 ± 0.06	3.04 ± 0.089	2.96 ± 0.058	3.11 ± 0.057
VLKFAAHTGATPIAGRF [RPS0A]	2.23 ± 0.21	2.85 ± 0.11	2.81 ± 0.13	2.1 ± 0.12

— the supplement of paper PMC9732359
